From publication PMC6804253, “Predicting and Experimentally Validating Hot-Spot Residues at Protein–Protein Interfaces” (ACS Chemical Biology, 2019)

B1: 1DAN SU163A (protein, UniProt P13726 33-251, looked up, variant S163A)
extracellular domain: SGTTNTVAAYNLTWKSTNFKTILEWEPKPVNQVYTVQISTKSGDWKSKCFYTTDTECDLTDEIVKDVKQTYLARVFSYPAGNVESTGSAGEPLYENSPEFTPYLETNLGQPTIQSFEQVGTKVNVTVEDERTLVRRNNTFLSLRDVFGKDLIYTLYYWKSSSAGKKTAKTNTNEFLIDVDKGENYCFSVQAVIPSRTVNRKSTDSPVECMGQEKGEFRE
modifications: extracellular domain
B2: 1DAN TU197A (protein, UniProt P13726 33-251, looked up, variant T197A)
extracellular domain: SGTTNTVAAYNLTWKSTNFKTILEWEPKPVNQVYTVQISTKSGDWKSKCFYTTDTECDLTDEIVKDVKQTYLARVFSYPAGNVESTGSAGEPLYENSPEFTPYLETNLGQPTIQSFEQVGTKVNVTVEDERTLVRRNNTFLSLRDVFGKDLIYTLYYWKSSSSGKKTAKTNTNEFLIDVDKGENYCFSVQAVIPSRAVNRKSTDSPVECMGQEKGEFRE
modifications: extracellular domain
B3: 1DAN TU172A (protein, UniProt P13726 33-251, looked up, variant T172A)
extracellular domain: SGTTNTVAAYNLTWKSTNFKTILEWEPKPVNQVYTVQISTKSGDWKSKCFYTTDTECDLTDEIVKDVKQTYLARVFSYPAGNVESTGSAGEPLYENSPEFTPYLETNLGQPTIQSFEQVGTKVNVTVEDERTLVRRNNTFLSLRDVFGKDLIYTLYYWKSSSSGKKTAKTNANEFLIDVDKGENYCFSVQAVIPSRTVNRKSTDSPVECMGQEKGEFRE
modifications: extracellular domain
B4: 1DAN TU203A (protein, UniProt P13726 33-251, looked up, variant T203A)
extracellular domain: SGTTNTVAAYNLTWKSTNFKTILEWEPKPVNQVYTVQISTKSGDWKSKCFYTTDTECDLTDEIVKDVKQTYLARVFSYPAGNVESTGSAGEPLYENSPEFTPYLETNLGQPTIQSFEQVGTKVNVTVEDERTLVRRNNTFLSLRDVFGKDLIYTLYYWKSSSSGKKTAKTNTNEFLIDVDKGENYCFSVQAVIPSRTVNRKSADSPVECMGQEKGEFRE
modifications: extracellular domain
B5: 1EMV NA24A (protein, UniProt P13479 1-86, looked up, variant N24A)
Colicin-E9 immunity protein: MELKHSISDYTEAEFLQLVTTICAADTSSEEELVKLVTHFEEMTEHPSGSDLIYYPKEGDDDSPSGIVNTVKQWRAANGKSGFKQG
B6: 1EMV SA29A (protein, UniProt P13479 1-86, looked up, variant S29A)
Colicin-E9 immunity protein: MELKHSISDYTEAEFLQLVTTICNADTSAEEELVKLVTHFEEMTEHPSGSDLIYYPKEGDDDSPSGIVNTVKQWRAANGKSGFKQG
B7: 1A4Y RA457A (protein, UniProt P13489 2-461, looked up, variant R457A)
Ribonuclease inhibitor: SLDIQSLDIQCEELSDARWAELLPLLQQCQVVRLDDCGLTEARCKDISSALRVNPALAELNLRSNELGDVGVHCVLQGLQTPSCKIQKLSLQNCCLTGAGCGVLSSTLRTLPTLQELHLSDNLLGDAGLQLLCEGLLDPQCRLEKLQLEYCSLSAASCEPLASVLRAKPDFKELTVSNNDINEAGVRVLCQGLKDSPCQLEALKLESCGVTSDNCRDLCGIVASKASLRELALGSNKLGDVGMAELCPGLLHPSSRLRTLWIWECGITAKGCGDLCRVLRAKESLKELSLAGNELGDEGARLLCETLLEPGCQLESLWVKSCSFTAACCSHFSSVLAQNRFLLELQISNNRLEDAGVRELCQGLGQPGSVLRVLWLADCDVSDSSCSSLAATLLANHSLRELDLSNNCLGDAGILQLVESVRQPGCLLEQLVLYDIYWSEEMEDRLQALEKDKPSLAVIS

Columns and labels:
[1] = tested on: PPIs of the SKEMPI data set (by PDBID); test: SKEMPI experimental ΔΔG, single mutations to alanine; type: binding; settings: for sk_class: class of the SKEMPI experimental ΔΔG
[2] = tested on: PPIs of the SKEMPI data set (by PDBID); settings: single mutation to alanine, ref SKEMPI, cited from earlier work; for sk_ddG_kJ (SKEMPI experimental ΔΔG): complex given by PDBID, residue group SQNT

| Molecule | sk_class [1] | sk_ddG_kJ (SKEMPI experimental ΔΔG) [2] [kJ] | sk_class (class of the SKEMPI experimental ΔΔG) ([1]; class by ΔΔG threshold 4.184 kJ/mol, ref SKEMPI) | sk_ddG_kJ (SKEMPI experimental ΔΔG, mutation to alanine) ([2]; PPI given by PDBID, sheet sortedByGroup, r_group DERKH) [kJ] |
| --- | --- | --- | --- | --- |
| B1 | Neutral (neutral (little effect) 4.184 kJ/mol < ΔΔG > −4.184 kJ/mol) | 0.08 |  |  |
| B2 | Neutral (neutral (little effect) 4.184 kJ/mol < ΔΔG > −4.184 kJ/mol) | 0.46 |  |  |
| B3 | Neutral (neutral (little effect) 4.184 kJ/mol < ΔΔG > −4.184 kJ/mol) | -0.08 |  |  |
| B4 | Neutral (neutral (little effect) 4.184 kJ/mol < ΔΔG > −4.184 kJ/mol) | 0.59 |  |  |
| B5 | Neutral (neutral (little effect) 4.184 kJ/mol < ΔΔG > −4.184 kJ/mol) | 0.59 |  |  |
| B6 | Neutral (neutral (little effect) 4.184 kJ/mol < ΔΔG > −4.184 kJ/mol) | 4.02 |  |  |
| B7 |  |  | Neutral (neutral (little effect) 4.184 kJ/mol < ΔΔG > −4.184 kJ/mol) | -0.92 |
